Assay: yeast display, Sf9 membrane polyspecificity reagent, FACS + sequencing; frameworks hold sequencing errors
Outline: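 Using colony PCR, genes from sorted yeast display clones were amplified, then sequenced on MiSeq at 2 × 250 and filtered by CDR length. The clones had been stained with 10% biotinylated, detergent-solubilized Sf9 membrane reagent for 1 hour at 4 °C and sorted by FACS into low and high (top ~1%) gates on anti-HA and streptavidin fluorescence. Polyreactivity labels come from the gate of origin.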

Sequence | polyreactivity (PSR sort gate)
QVQLVESGGGLVQAGGSLRLSCAASGSISLAYAMGWYRQAPGKERELVAAISFRTGRTFYADSVKGRFTISRDNAKNTVYLQMNSLKPEDTAVYYCAAENLDFYFEEYWGQGTQVTVSS | high polyreactivity
QVQLVESGGGLVQAGGSLRLSCAPSGFTIGYYAMGWYRQAPGKEMELVAGISFSGTSTYYADSVKGRFTFSRDNAKNTVYLLMNSLKPEDTAVYYCNKVYYSAASKHKEYWGQGTQVTVSS | high polyreactivity
QVQLVESGGGLVQAGGSLRLSCAASGRILRVYAMGWYRQAPGKERELVAAISSGGSTNYADSVKGRFTISRDNAKNTVYLQMNSLKPEDTAVYDCAATVRGVGYRYYYWGQGTQVTVSS | high polyreactivity
QVQLVESGGGLVQAGGSLRLSCAASGIIFAWYAMGWYRQAPGKERELVAAISYSGGTTYYADSVKGRFTISRDIAKNTVYLQMNSLKPEDTEVYYCAGRLHLFFSYDYWGQGTLVTVSS | low polyreactivity
QVQLVESGGGLVQAGGSLRLSCAASGRTFKSYAMGWYRQAPGKERELVAAISKRGGSTYYADSVKGRFTISRDNAKNTVYLQMNSLKPADTAVYYCNKLYLKPGRYYYWGQGTQVTVSS | high polyreactivity
QVQHVESRGGLVQAGGSLRLSCAASGRSFSDYAMGGYRQAAGKERELVASINSGGSTYYADSVKGRFTISRDKAKNTVYLHMNSLKPEDTAVYYCAAGFQLVKGSLSGRAAYYYWGQGTQVTVSS | high polyreactivity
QVQLVESWGGLVQAGGTLSLSCADSGLIFYFYDRGWYRQAPGKESEFVATISSTGGSTYYADSVKGRFTISRDNAKNTVYLQMNSVKPEDTAVYVCADRGWFPGFRYDYWGQGTQVTVSS | low polyreactivity
QVQLVESGGGLVQAGGSLRLSCAASGRTFGKYAMGWYRQAPGKDRELVATISRSGGSTYYAVSVKGRFTISRDNAKNTVYLQMNSLKPEDTAVYYCNAVTSRYIWPPVVDRYHYWGQGTQVTVSS | high polyreactivity
QVQLVESGGGLVQAGGSLRLSCAPSGIIFKGYAMGWSRQAPGKERELVAAISHNADSTYADSVKGRFTISRDNAKNTVYLQMNSLKPEDTAVYYCNADYLYHQTSRGKYYSWGQGTQVTVSS | low polyreactivity
QVQLVESGGGLVQAGGSLRLSCAASGRIFSINAMGWYRQAPGKERELVAAITWSGGSTYYADSVKGRFTISRDNAKNTVYLQMNILKPEDTAVYYCAARLPWYIPTPSYRIAGGNYWGQGTQVTVSS | low polyreactivity
QVQLVESGGGLVQAGGSLSLICDASGRTFTRYVMGWYRHAPGKERELVAAISSSGGTYYADSVKGRFTISRDNAKNTVYLQMNSLKPEDTAVYYCAVGSKLSRSYGYYYWGQGTQVTVSS | high polyreactivity
QVQLVESGGGLVQAGGSLRLSCAASGSTFQSNAMGWYRQAPGKERELVAAISSSAGTTFYADSVKGRFTISRDNAKNTVYLQMNSLKPEDTAVYYCAKKDFYFAPSPGYYRSRDYWGQGTQVTVSS | low polyreactivity
QVQLVESGGGLVQAGGSLRLSCAASGSIFQTYAMGWYRQAPGKERELVAAIDGGDTTNYADSVKGRFTISRDNAKNTVYLQMNSLKPEDTAVYYCNADWGQVTQVTVSS | low polyreactivity
QVQLVESGGGLVQAGGSLRLSCAASGSIFRIYAMGGYRQAPGKERELVAAITGRGGSTYYADSVKGRFTISRDNAKNTVYLQRNSLKPEDTAVYYCAAEERYAYRYDYWGQATQVTVSS | high polyreactivity
QVQLVESGGGLVQAGGSLRLSCAASGSTFYSNAMGWYRQAPGKERELVASISWSSGSTYYADSVKGRFTISRDNAKNTVYLQMNSLKPEDTAVYYCATDAGGPYRFGYWGQGTQVTVSS | low polyreactivity
QVQLVESGGGLVQAGGSLRLTCAASGSTFGDNAMGWYRQAPGKEREFVATISWDTGTTYYADSVKGRFTISRDNAKNTVYLHMNSLKQEDTAVYYCNVQSYAEFGYWGQGTQVTVSS | low polyreactivity

Sequence | polyreactivity (PSR sort gate)
QVQRVESGGGLVQAGGSLRLSCAASGRTFYGYAMGWYRQAPGKDRELVASISWSTGSTHYADSVKGRFTISRVNAKNTVYVQMNSLKPEATAVYYCAAPFWRDSYVQIDYDYWGQGTQVTVSS | low polyreactivity
QVQLVESGGGLVQAGGSLRLSCAASGRIFYFNAMGWYRQAPGKERELVATITYIGGSTHYADSVKGRFTISRDNAKNTVYLQMNSLKPEDTAVYYCAVRDGKDTDTYWYGSWGQGTQVTVSS | low polyreactivity
QEQLQESGSGLVQAGGSLRLSCAASGNIFQDWVMGWYRQAPGKERELVAAISHGAITYYADSVKGRFTISRDNAKYTVYLQTNSLKREDTAVYYCAAYYIVEYLHGYWGQGTRVTVSS | low polyreactivity
QVQHEESGGGLDQAGGSLRLSSASSGTIFYGCYMGWYRQARGKEREMVATISWSSGSSTYYADSVKGRFTISRDNANNSVYLQMNILKPEDTAVYYCAVDFAIGYRYLCRVDYWGQGTQVTVSS | low polyreactivity
QVQLEESGAGLVQAGGRLRLSCAASGITFILYAMGWYRHAPGKERELVAAISSGGRTKYADSEKGRFTISRDNAKNTVYLQMTSLKPEDTAVYYCNVSYLVYRWNFGWSMDYWGQGTQVTVSS | low polyreactivity
QVQLVESGGGLVQAGGSLRLTCAASGGILYYNAMGWYRQAPGKEREVVAAISRSGITYYADSVKGRFTISRDNAKNTVYLQMNSLKPEDTAVYYSNTVPWRRWGYDYWGQGTQVTVSS | high polyreactivity
QVQLVESGGGLVQAGGSLRLSCAASGYIFNLNAMGWYRQAPGKERELVAAITRSGGSTYYADSVKGRFTISRDNAKNTVYLQMNSQKPEDTAVYYCAARGPYYRPWYKYDYWGQGTQVTVSS | high polyreactivity
QVQLVESGGGLVQAGGSLRLSCAASGSIAMGWYRQAPGKERELVATISSSGGSTYYADSVKGRFTISRDNAKNTVYLQMNSLKPEDTAVYYCNTQAVYGGGEGGYDYWGQGTQLTVSS | low polyreactivity
QVQLVESGGGLVQAGGSLRLSCAASGYTFSPNDMGWYRKAPGKERELVAAITSSVGSTYYADSVKGRFTISRDNAKNTVYLQMNSLKPEDTAVYYCARTYQVGDSIDDYWGQGTQVTVSS | low polyreactivity
QVQLVESGGGLVQAGGSLRLSCAASGFTFRYYAMGWYRQAPGKERELVAAITSGGGSTYYADSVKGRFTISRDNAKNTVYLQMNSLKPEDTAVYYCATKRARYSYDYWGQGTQVTVSS | high polyreactivity
QVQLVESGGGLVQAGGSLRLSCAASGGTFTRYTMGWYRQAHGKESELVAAISSSGGSTYYADSVKGRFTISRDNAKNTVYLQMNSLKPEDTAVYYCAAFKASSKQYPYDYWGQGTQVTVSS | high polyreactivity
QVQLVESGGGLVQAGGSLRLSCAASGFIFWSYAMGWYRQAPGKERELVAAITRRGGSTYYADSVKGRFTISRDNAKNTVYLQMNSLKPEDTAVYYCNARRTYNGPVYPYYSGVNYWGQGTQVTVSS | high polyreactivity
QVQLVESGGGLVQAGGSLRLSCAASGRIFGFNAMGWYRQAPGKERELVAGITDSSGRTNYADSVKGRFTISRDNAKNTVYLQMNSLKPEDTAVYYCAKDGLVIPADGSDYWGQGTQVTVSS | low polyreactivity
QVQLVESGGGLVQAGGSLRLSCAAYGSTFEYYVMGWYRQAPGKERELVAAISGSGGGTYYADSVKGRFTISRDNAKNTVSLQMNSLKPEDTAVYYCAAVATLEKYDYWGQGNQVTVSS | low polyreactivity
QVQLVESGGGLVQAGGSLRLSCAASGRIFVAYAMGWYRQAPGKERELVADIDYIDGSTYYADSVKGRFTISRDNAKNTVYLQMNSLKPEDTAVYYCAVDSLYYAGYYDYWGQGTQVTVSS | high polyreactivity
QVQLVESGGGLVQAGGSLRLSCAASGRTIFRYAMGWYTQAPGKERDLVAAITWSGGTTYYADSVKGRFTISRDNAKNTVYLQMNSLKPEDTAVYYCNARGLWYRRVVTYGYWGQGTQVTVSS | high polyreactivity

— the nanobody polyreactivity screen of Harvey et al. (2022)
